B1: VcDnaB, replicative helicase DnaB from Vibrio cholerae (enzyme)
chain: MADPRTDNRNRKIPDAQVDAIKVPPHSLEAEQSVIGGLLLDNERWDTVSEHVMTQDFYSRPHRLIFDGVKSILEAGKPLDLITLSEYLEQREQLEDVGGFAYLADLAKNTPSAANINAYAEIVAERALVRNLIGVANEIADAGYDPQGRNAEDLLDLAESKVFAIAEARTSENEGPKNVDSILERTLERIELLYKTPQDGVTGVNTGFTDLNKKTAGLQGSDLIIVAARPSMGKTTFAMNLCENAAMEQDKPVLIFSLEMPAEQIMMRMLASLSRVDQTKIRTGQLDDEDWARISSTMGILMEKKNMYIDDSSGLTPTEVRSRARRIAREHGGLSLIMVDYLQLMRVPALTDNRTLEIAEISRSLKALAKELNVPVVALSQLNRSLEQRADKRPVNSDLRESGSIEQDADLIMFIYRDEVYHPDSPLKGTAEIIIGKQRNGPIGSVRLTFQGHYSRFDNYAGPAFDDE

Tests used:
[1] = target: VcDnaB, replicative helicase DnaB from Vibrio cholerae (Vibrio cholerae); experiment: SPR
[2] = target: VcDnaB, replicative helicase DnaB from Vibrio cholerae (Vibrio cholerae); experiment: SEC-SAXS
crystal structure = target: the molecule itself; experiment: crystal structure
VcDnaB^S296G = VcDnaB^S296G (Vibrio cholerae, UniProt A0A085R2T8 1-468, S296G); experiment: SPR
[3] = target: B1; experiment: SPR
EcDnaB^G299S = EcDnaB^G299S (E. coli, UniProt P0ACB0 1-471, G299S); experiment: SPR
SEC-MALS = target: the molecule itself; experiment: SEC-MALS

VcDciA, DciA from Vibrio cholerae (natural protein)
stoichiometry N (VcDciA per 6 VcDnaB) [1]: 3
stoichiometry N (VcDciA per VcDnaB hexamer) [2]: 3

B1
stoichiometry N (crystal structure): 6 subunits

B2: EcDnaC, helicase loader DnaC from E. coli (natural protein)
chain: MKNVGDLMQRLQKMMPAHIKPAFKTGEELLAWQKEQGAIRSAALERENRAMKMQRTFNRSGIRPLHQNCSFENYRVECEGQMNALSKARQYVEEFDGNIASFIFSGKPGTGKNHLAAAICNELLLRGKSVLIITVADIMSAMKDTFRNSGTSEEQLLNDLSNVDLLVIDEIGVQTESKYEKVIINQIVDRRSSSKRPTGMLTNSNMEEMTKLLGERVMDRMRLGNSLWVIFNWDSYRSRVTGKEY
binding result (VcDnaB^S296G): binds
binding result [3]: binds
fold change of the dissociation rate against EcDnaB (EcDnaB^G299S): 2 fold

B3: VcDnaB, replicative helicase DnaB from Vibrio cholerae (enzyme)
chain: MADPRTDNRNRKIPDAQVDAIKVPPHSLEAEQSVIGGLLLDNERWDTVSEHVMTQDFYSRPHRLIFDGVKSILEAGKPLDLITLSEYLEQREQLEDVGGFAYLADLAKNTPSAANINAYAEIVAERALVRNLIGVANEIADAGYDPQGRNAEDLLDLAESKVFAIAEARTSENEGPKNVDSILERTLERIELLYKTPQDGVTGVNTGFTDLNKKTAGLQGSDLIIVAARPSMGKTTFAMNLCENAAMEQDKPVLIFSLEMPAEQIMMRMLASLSRVDQTKIRTGQLDDEDWARISSTMGILMEKKNMYIDDSSGLTPTEVRSRARRIAREHGGLSLIMVDYLQLMRVPALTDNRTLEIAEISRSLKALAKELNVPVVALSQLNRSLEQRADKRPVNSDLRESGSIEQDADLIMFIYRDEVYHPDSPLKGTAEIIIGKQRNGPIGSVRLTFQGHYSRFDNYAGPAFDDE
stoichiometry N (SEC-MALS): 6

From article PMC8216460 (Nucleic Acids Research, 2021)
